# Assay results from patent publication US20160145657A1, “Methods and Materials for Producing 7-Carbon Chemicals via a C9 Route” (INVISTA North America S.á.r.l., priority 2014, published 2016).
# Experiments:
# Assay type in all cases: biochemical
# [1] = carboxylate reductase activity, pimelate semialdehyde to heptanedial, NADPH consumption at 340 nm; details: purified enzyme enhanced by sfp gene product, 2 mM pimelate semialdehyde, pH 7.5, room temperature, 20 min; FIG. 11
# Procedure: The N-terminal His-tagged carboxylate reductase of SEQ ID NO: 6 (see Example 3 and FIG. 6) was assayed using pimelate semialdehyde as substrate. The enzyme activity assay was performed in triplicate in a buffer composed of a final concentration of 50 mM HEPES buffer (pH=7.5), 2 mM pimelate semialdehyde, 10 mM MgCl2, 1 mM ATP and 1 mM NADPH. The enzyme activity assay reaction was initiated by adding purified carboxylate reductase and phosphopantetheine transferase or the empty vector control to the assay buffer containing the pimelate semialdehyde and then incubated at room temperature for 20 min. The consumption of NADPH was monitored by absorbance at 340 nm.
# [2] = carboxylate reductase activity, N7-acetyl-7-aminoheptanoate to N7-acetyl-7-aminoheptanal, NADPH consumption at 340 nm; details: purified enzyme enhanced by sfp gene product, 2 mM N7-acetyl-7-aminoheptanoate, pH 7.5, room temperature, 20 min; FIG. 10
# Procedure: The activity of each of the N-terminal His-tagged carboxylate reductases of SEQ ID NOs: 3, 5, and 6 (see Examples 2 and 3, and FIG. 6) for converting N7-acetyl-7-aminoheptanoate to N7-acetyl-7-aminoheptanal was assayed in triplicate in a buffer composed of a final concentration of 50 mM HEPES buffer (pH=7.5), 2 mM N7-acetyl-7-aminoheptanoate, 10 mM MgCl2, 1 mM ATP, and 1 mM NADPH. The assays were initiated by adding purified carboxylate reductase and phosphopantetheine transferase or the empty vector control to the assay buffer containing the N7-acetyl-7-aminoheptanoate then incubated at room temperature for 20 min. The consumption of NADPH was monitored by absorbance at 340 nm.
# [3] = carboxylate reductase activity, pimelate to pimelate semialdehyde, NADPH consumption at 340 nm; details: purified enzyme enhanced by sfp gene product, 2 mM pimelate, pH 7.5, room temperature, 20 min; FIG. 8
# Procedure: A nucleotide sequence encoding a HIS-tag was added to the nucleic acid sequences from Segniliparus rugosus and Segniliparus rotundus that encode the carboxylate reductases of SEQ ID NOs: 4 (EFV11917.1) and 6 (ADG98140.1), respectively (see FIG. 6), such that N-terminal HIS tagged carboxylate reductases could be produced. Each of the modified genes was cloned into a pET Duet expression vector along with a sfp gene encoding a HIS-tagged phosphopantetheine transferase from Bacillus subtilis, both under the T7 promoter. Each expression vector was transformed into a BL21[DE3] E. coli host and the resulting recombinant E. coli strains were cultivated at 37° C. in a 250 mL shake flask culture containing 50 mL LB media and antibiotic selection pressure, with shaking at 230 rpm. Each culture was induced overnight at 37° C. using an auto-induction media.
# The pellet from each induced shake flask culture was harvested via centrifugation. Each pellet was resuspended and lysed via sonication, and the cell debris was separated from the supernatant via centrifugation. […]
# Enzyme activity assays (i.e., from pimelate to pimelate semialdehyde) were performed in triplicate in a buffer composed of a final concentration of 50 mM HEPES buffer (pH=7.5), 2 mM pimelate, 10 mM MgCl2, 1 mM ATP and 1 mM NADPH. […] The consumption of NADPH was monitored by absorbance at 340 nm. […]
molecule,measurement,setting,value
"SEQ ID NO: 6: Segniliparus rotundus carboxylate reductase, Genbank Accession No. ADG98140.1 (protein) MTQSHTQGPQASAAHSRLARRAAELLATDPQAAATLPDPEVVRQATRPGLRLAERVDAILSGYADRPALGQRSFQTVKDPITGRSSVELLPTFDTITYRELRERATAIASDLAHHPQAPAKPGDFLASIGFISVDYVAIDIAGVFAGLTAVPLQTGATLATLTAITAETAPTLFAASIEHLPTAVDAVLATPSVRRLLVFDYRAGSDEDREAVEAAKRKIADAGSSVLVDVLDEVIARGKSAPKAPLPPATDAGDDSLSLLIYTSGSTGTPKGAMYPERNVAHFWGGVWAAAFDEDAAPPVPAINITFLPLSHVASRLSLMPTLARGGLMHFVAKSDLSTLFEDLKLARPTNLFLVPRVVEMLYQHYQSELDRRGVQDGTREAEAVKDDLRTGLLGGRILTAGFGSAPLSAELAGFIESLLQIHLVDGYGSTEAGPVWRDGYLVKPPVTDYKLIDVPELGYFSTDSPHPRGELAIKTQTILPGYYKRPETTAEVFDEDGFYLTGDVVAQIGPEQFAYVDRRKNVLKLSQGEFVTLAKLEAAYSSSPLVRQLFVYGSSERSYLLAVIVPTPDALKKFGVGEAAKAALGESLQKIARDEGLQSYEVPRDFIIETDPFTVENGLLSDARKSLRPKLKEHYGERLEAMYKELADGQANELRDIRRGVQQRPTLETVRRAAAAMLGASAAEIKPDAHFTDLGGDSLSALTFSNFLHDLFEVDVPVGVIVSAANTLGSVAEHIDAQLAGGRARPTFATVHGKGSTTIKASDLTLDKFIDEQTLEAAKHLPKPADPPRTVLLTGANGWLGRFLALEWLERLAPAGGKLITIVRGKDAAQAKARLDAAYESGDPKLAGHYQDLAATTLEVLAGDFSEPRLGLDEATWNRLADEVDFISHPGALVNHVLPYNQLFGPNVAGVAEIIKLAITTRIKPVTYLSTVAVAAGVEPSALDEDGDIRTVSAERSVDEGYANGYGNSKWGGEVLLREAHDRTGLPVRVFRSDMILAHQKYTGQVNATDQFTRLVQSLLATGLAPKSFYELDAQGNRQRAHYDGIPVDFTAESITTLGGDGLEGYRSYNVFNPHRDGVGLDEFVDWLIEAGHPITRIDDYDQWLSRFETSLRGLPESKRQASVLPLLHAFARPGPAVDGSPFRNTVFRTDVQKAKIGAEHDIPHLGKALVLKYADDIKQLGLL",acceptance of pimelate semialdehyde as substrate (NADPH consumption) against the empty vector control,[1],accepted pimelate semialdehyde as substrate
same,acceptance of N7-acetyl-7-aminoheptanoate as substrate (NADPH consumption) against the empty vector control,[2],accepted N7-acetyl-7-aminoheptanoate as substrate
same,acceptance of pimelate as substrate (NADPH consumption) against the empty vector control,[3],accepted pimelate as substrate
